Assay results taken from paper PMC7595197.

Target: AtaT (G108D) (enterohemorrhagic E. coli O157:H7)
Assay: crystal structure

## AtaT (G108D) (enzyme)
  stoichiometry N: 2
